For experiment [1], the target named is T1, gastrin-releasing peptide receptor (GRPR) (UniProt P30550 1-384, limits assumed).
T1 construct: whole, on cells; Endogenous receptor on PC3 and H441 cells, xenograft tumors or PC3 cell lysate; the cell lines are human; also called GRP receptor
Nature of the experiment: Scatchard plot experiments, GRPR on cancer cell lines.

Experiment [2] addresses T1, gastrin-releasing peptide receptor …. Nature of the experiment: Scatchard plot from absorbance-based assay on wells of PC3 cell lysate; Kd of this variant not given.

T1 sequence (P30550 whole entry): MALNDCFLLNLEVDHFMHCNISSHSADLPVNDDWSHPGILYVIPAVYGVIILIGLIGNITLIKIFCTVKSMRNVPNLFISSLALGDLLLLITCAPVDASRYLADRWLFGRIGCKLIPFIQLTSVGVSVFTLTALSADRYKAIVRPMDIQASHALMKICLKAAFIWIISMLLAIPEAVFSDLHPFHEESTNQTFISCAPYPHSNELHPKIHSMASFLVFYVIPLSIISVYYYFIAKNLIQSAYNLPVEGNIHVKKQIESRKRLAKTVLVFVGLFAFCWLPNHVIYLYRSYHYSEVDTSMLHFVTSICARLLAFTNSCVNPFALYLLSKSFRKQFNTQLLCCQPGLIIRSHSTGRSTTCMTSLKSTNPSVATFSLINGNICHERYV

B1: ProCA1.B10 (designed binder)
chain: RDSGTVWGALGHGIELNIPNFQMTDDIDEVRWERGSTLVAEFKRKMKPFLKSGGSGGGNQWAVGHLMGGSGGAFEIDANGDLDIKNLTRDDSGTYNVTVYSTNGTRILNKALDLRILE
For B1, the binding result in experiment [1] is “binds”.

B2: ProCA1.G10 (designed binder)
chain: RDSGTVWGALGHGIELNIPNFQMTDDIDEVRWERGSTLVAEFKRKMKPFLKSGGSGGGNHWAVGHLMGGSGGAFEIDANGDLDIKNLTRDDSGTYNVTVYSTNGTRILNKALDLRILE
B2: the binding result in experiment [2] is on record as “binds”.

Source of the values: patent US9956304 (GEORGIA STATE UNIVERSITY RESEARCH FOUNDATION, dated 2018).
